B1: GST-SNX2 (natural protein)
chain: MAAEREPPPLGDGKPTDFEDLEDGEDLFTSTVSTLESSPSSPEPASLPAEDISANSNGPKPTEVVLDDDREDLFAEATEEVSLDSPEREPILSSEPSPAVTPVTPTTLIAPRIESKSMSAPVIFDRSREEIEEEANGDIFDIEIGVSDPEKVGDGMNAYMAYRVTTKTSLSMFSKSEFSVKRRFSDFLGLHSKLASKYLHVGYIVPPAPEKSIVGMTKVKVGKEDSSSTEFVEKRRAALERYLQRTVKHPTLLQDPDLRQFLESSELPRAVNTQALSGAGILRMVNKAADAVNKMTIKMNESDAWFEEKQQQFENLDQQLRKLHVSVEALVCHRKELSANTAAFAKSAAMLGNSEDHTALSRALSQLAEVEEKIDQLHQEQAFADFYMFSELLSDYIRLIAAVKGVFDHRMKCWQKWEDAQITLLKKREAEAKMMVANKPDKIQQAKNEIREWEAKVQQGERDFEQISKTIRKEVGRFEKERVKDFKTVIIKYLESLVQTQQQLIKYWEAFLPEAKAIA
B2: WDR91-His6 (natural protein)
chain: MAEAVERTDELVREYLLFRGFTHTLRQLDAEIKADKEKGFRVDKIVDQLQQLMQVYDLAALRDYWSYLERRLFSRLEDIYRPTIHKLKTSLFRFYLVYTIQTNRNDKAQEFFAKQATELQNQAEWKDWFVLPFLPSPDTNPTFATYFSRQWADTFIVSLHNFLSVLFQCMPVPVILNFDAECQRTNQVQEENEVLRQKLFALQAEIHRLKKEEQQPEEEEALVQHKLPPYVSNMDRLGDSELAMVCSQRNASLSQSPRVGFLSSLLPQSKKSPSRLSPAQGPPQPQSSAKKESFGGQGTKGKDPTSGAKDGKSLLSGLATGESGWSQHRQRRLQDHGKERKELFSTTTSQCAEKKPEASGPEAEPCPELHTEPVEPLTRASSAGPEGGGVRPEQPFIVLGQEEYGEHHSSIMHCRVDCSGRRVASLDVDGVIKVWSFNPIMQTKASSISKSPLLSLEWATKRDRLLLLGSGVGTVRLYDTEAKKNLCEININDNMPRILSLACSPNGASFVCSAAAPSLTSQVDFSAPDIGSKGMNQVPGRLLLWDTKTMKQQLQFSLDPEPIAINCTAFNHNGNLLVTGAADGVIRLFDMQQHECAMSWRAHYGEVYSVEFSYDENTVYSIGEDGKFIQWNIHKSGLKVSEYSLPSDATGPFVLSGYSGYKQVQVPRGRLFAFDSEGNYMLTCSATGGVIYKLGGDEKVLESCLSLGGHRAPVVTVDWSTAMDCGTCLTASMDGKIKLTTLLAHKA
B3: GST-SNX27(PX) (domain or fragment)
chain: EKQAVPISVPRYKHVEQNGEKFVVYNVYMAGRQLCSKRYREFAILHQNLKREFANFTFPRLPGKWPFSLSEQQLDARRRGLEEYLEKVCSIRVIGESDIMQEFLSESDENYNGVS

Common to all, as to assay: pull-down
The experiment “WDR91-His6” addresses B2.
A further experiment has as its target GST-SNX27 (UniProt Q96L92 1-541).
In another experiment the target is GST-VPS35 (UniProt Q96QK1 1-796).
A further experiment addresses T1, His6-WDR91(392-747) (UniProt A4D1P6 392-747).
T1 sequence: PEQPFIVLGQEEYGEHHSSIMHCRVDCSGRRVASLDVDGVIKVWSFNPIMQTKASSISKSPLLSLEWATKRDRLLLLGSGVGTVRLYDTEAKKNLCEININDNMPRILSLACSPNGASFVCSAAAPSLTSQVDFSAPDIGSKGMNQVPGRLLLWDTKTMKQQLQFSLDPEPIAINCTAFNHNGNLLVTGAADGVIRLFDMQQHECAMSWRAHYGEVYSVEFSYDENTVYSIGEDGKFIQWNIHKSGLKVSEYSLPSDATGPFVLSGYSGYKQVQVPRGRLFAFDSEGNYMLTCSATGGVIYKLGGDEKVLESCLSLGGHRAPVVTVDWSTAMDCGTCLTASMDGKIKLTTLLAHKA

For B1, the binding result in the experiment with WDR91-His6 is on record as “binds”.
As to B2, the binding result in the experiment with GST-SNX27 and with GST-VPS35 was “binds” throughout.
With B3, the binding result with WDR91-His6 and with His6-WDR91(392-747) was “binds” in each case.

(Values after article PMC9531996 (The Journal of Cell Biology, 2022).)
